Test results: patent publication US8669345 (Biogen, dated 2014)

Legend:
[1] = biological target: T1, peptide LDLSDNAQLR (Wild-type Fragment) (rat); test: MS of peptides bound by 7E11
T1 peptide: LDLSDNAQLR

[2] = biological target: T2, peptide LDLSSDNAQLR (Scrambled Fragment #3); test: MS of peptides bound by 7E11
T2 peptide: LDLSSDNAQLR

[3] = biological target: T3, peptide LDALSDDAELR (Scrambled Fragment #2, deaminated); test: MS of peptides bound by 7E11
T3 peptide: LDALSDDAELR

[4] = biological target: T4, peptide LDALSDNAQLR (Scrambled Fragment #2); test: MS of peptides bound by 7E11
T4 peptide: LDALSDNAQLR

[5] = biological target: T5, peptide LDLASDNAQLR (Scrambled Fragment #1); test: MS of peptides bound by 7E11
T5 peptide: LDLASDNAQLR

[6] = biological target: T6, peptide LDLASDDAELR (Scrambled Fragment #1, deaminated); test: MS of peptides bound by 7E11
T6 peptide: LDLASDDAELR

[7] = biological target: T7, peptide LDLSDDAELR (deaminated wild-type fragment); test: MS of peptides bound by 7E11
T7 construct: deamination at Asn115 and Gln117
T7 peptide: LDLSDDAELR

[8] = biological target: T8, Nogo receptor-1 (species and construct not stated); test: surface plasmon resonance (BIAcore) per the text; NgR1 construct not stated
T8 sequence (Q9BZR6 27-447, species assumed, looked up): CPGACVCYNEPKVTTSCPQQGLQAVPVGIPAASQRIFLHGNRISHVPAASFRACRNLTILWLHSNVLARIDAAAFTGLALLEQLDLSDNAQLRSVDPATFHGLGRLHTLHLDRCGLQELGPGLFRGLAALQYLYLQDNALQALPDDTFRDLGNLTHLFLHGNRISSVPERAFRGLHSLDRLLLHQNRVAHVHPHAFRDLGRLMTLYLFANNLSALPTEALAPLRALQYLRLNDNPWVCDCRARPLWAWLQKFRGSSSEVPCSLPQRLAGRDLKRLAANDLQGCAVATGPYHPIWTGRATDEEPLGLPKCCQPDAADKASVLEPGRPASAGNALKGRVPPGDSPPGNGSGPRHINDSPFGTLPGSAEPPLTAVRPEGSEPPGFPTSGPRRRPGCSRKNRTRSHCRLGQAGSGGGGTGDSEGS

peptide DNAQLRVVDPTT = biological target: T9, peptide DNAQLRVVDPTT (rat); test: endoprotease Asp-N digest of p-617
T9 peptide: DNAQLRVVDPTT

[9] = biological target: T10, tryptic peptide AAAFTGLTLLEQLDLSDNAQLR (rat); test: tryptic digest of sNgR310, MS and sequence analysis
T10 construct: tryptic digest peptide of rat sNgR310
T10 peptide: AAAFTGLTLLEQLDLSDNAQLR

[10] = biological target: T11, peptide LDLSDNAQLHVVDPTT (R119H); test: ELISA, peptides immobilized on MaxiSorp plate
T11 construct: also called Arg119His; R11911 (so in the source)
T11 peptide: LDLSDNAQLHVVDPTT

[11] = biological target: T12, peptide LDLSDNAALRVVDPTT (Q117A); test: ELISA, peptides immobilized on MaxiSorp plate
T12 construct: also called Gln17Ala (so in the source)
T12 peptide: LDLSDNAALRVVDPTT

[12] = biological target: T13, 35 kDa CNBr fragment of sNgR310 (aa 27-aa 229) (rat, UniProt Q99M75 27-229); test: western blot
T13 construct: CNBr cleavage product of rat sNgR310; also called 33/35 kDa doublet
T13 chain: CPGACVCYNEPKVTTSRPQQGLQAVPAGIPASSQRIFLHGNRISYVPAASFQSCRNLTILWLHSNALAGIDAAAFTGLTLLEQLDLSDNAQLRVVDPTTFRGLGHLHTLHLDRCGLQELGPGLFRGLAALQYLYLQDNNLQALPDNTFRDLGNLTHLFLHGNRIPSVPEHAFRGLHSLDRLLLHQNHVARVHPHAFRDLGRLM
Protocol: (§1) A recombinant fragment of the rat NgR1 that contains all 8 LRR domains and the N- and C-terminal caps (sNgR310) was treated with either acid or cyanogen bromide (CNBr) and separated the fragments by gel electrophoresis.

[13] = biological target: T14, 15 kDa acid fragment of sNgR310 (aa 27-aa 122) (rat, UniProt Q99M75 27-122); test: western blot
T14 construct: acid cleavage product of rat sNgR310
T14 chain: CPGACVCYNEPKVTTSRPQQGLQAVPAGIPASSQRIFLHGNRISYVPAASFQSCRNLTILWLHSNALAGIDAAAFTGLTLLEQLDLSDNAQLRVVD
Protocol: as §1

[14] = biological target: T15, 10 kDa CNBr fragment of sNgR310 (aa 241-aa 310) (rat, UniProt Q99M75 241-310); test: western blot
T15 construct: CNBr cleavage product of rat sNgR310
T15 chain: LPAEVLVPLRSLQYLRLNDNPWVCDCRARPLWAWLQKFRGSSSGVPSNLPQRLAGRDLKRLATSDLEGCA
Protocol: as §1

B1: monoclonal antibody 7E11 (antibody, V domains shown)
VH: VQLQESGAELVMPGASVKMSCKASGYTFTDYWMHWVKQRPGQGLEWIGAIDPSDSYSSYNQNFKGKATLTVDGSSSTAYMQLSSLTSEDSAVYYCARRITEAGAWFAYWGQGTTVT
VL: DVVMTQTPLSLPVSLGDQASISCRSSQSLVHSNGNTYLHWYLQKPGQSPKLLIYKVSNRFSGVPDRFSGSGSGTDFTLKISRVDAEDLGVYFCSQSTHVPFTFGGGTKLEIKR
notes: murine IgG1, kappa; immunogen: peptide of rat NgR1 residues 110-125; also called mAb 7E11; HB 7E11 (ATCC PTA-4587)
[1]
  binding result: binds
[2]
  binding result: binds
[3]
  binding result: binds
[4]
  binding result: binds
[5]
  binding result: binds
[6]
  binding result: binds
[7]
  binding result: binds
[8]
  Kd: 100 nM
Peptide DNAQLRVVDPTT
  binding result: binds
[9]
  binding result: binds
[10]
  fold increase of EC50 against the original peptide: 25 fold
[11]
  fold increase of EC50 against the original peptide: 30 fold
[12]
  binding result: binds
[13]
  binding result: binds
[14]
  binding result: no binding
